According to the supplement of paper PMC12855868:

B1: library; numbered along this chain (parent)
chain: MAAAGGARLLRAASAVLGGPAGRWLHHAGSRAGSSGLLRNRGPGGSAEASRSLSVSARARSSSEDKITVHFINRDGETLTTKGKVGDSLLDVVVENNLDIDGFGACEGTLACSTCHLIFEDHIYEKLDAITDEENDMLDLAYGLTDRSRLGCQICLTKSMDNMTVRVPETVADARQSIDVGKTS

Variants of: B1
Assay: scaled log2 fold change in cell abundance, elesclomol vs control (0 = silent mean, 1 = nonsense mean) (scaled log2 ratio); higher = higher viability under elesclomol (loss of FDX1 cuproptosis function)
Details: glucose 10 mM
[1] = with ABC1 FDX1 KO, elesclomol 5 nM, 14 days
[2] = with HEK293T FDX1 KO, elesclomol 40 nM, 11 days
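Further: variant abundance is its share of total variant reads in each endpoint sample, from next-generation sequencing of the integrated ORF PCR-amplified out of genomic DNA.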

Row | Variant | scaled log2 fold change [1] | scaled log2 fold change [2]
1 | M137E | -0.366 | 0.879
2 | M137H | 0.073 | -0.384
3 | M137F | -0.075 | -0.7
4 | M137R | -0.477 | -0.0264
5 | M137L | 0.182 | 1.39
6 | M137D | 0.813 | 0.152
7 | M137V | -0.0968 | -0.154
8 | M137W | -0.244 | 1.1
9 | M137T | 0.14 | -0.403
10 | M137P | -0.0177 | -0.842
11 | M137Q | 0.0471 | -0.244
12 | M137S | -0.337 | -0.153
13 | M137Y | -0.108 | 1.02
14 | M137N | 0.119 | –
15 | M137A | -0.189 | 0.285
16 | M137I | 0.0941 | 0.499
17 | M137G | -0.0982 | -0.171
18 | M137C | -0.596 | -0.635
19 | M137K | -0.121 | 1.33
20 | D139S | -0.201 | -1.37
21 | D139G | -0.228 | -0.268
22 | D139F | 0.257 | 0.819
23 | D139R | 0.938 | 1.09
24 | D139E | 0.147 | 0.513

Row | Variant | scaled log2 fold change [1] | scaled log2 fold change [2]
25 | D139Q | -0.0276 | 0.00203
26 | D139A | 0.113 | -0.357
27 | D139L | 0.0653 | -0.608
28 | D139M | 0.045 | 0.155
29 | D139K | 0.896 | 0.86
30 | D139N | -0.132 | –
31 | D139C | -0.416 | -0.576
32 | D139H | -0.062 | -0.315
33 | D139I | -0.652 | 0.722
34 | D139P | -0.0434 | -0.395
35 | E134A | 0.628 | 0.137
36 | E134D | 0.911 | 1.21
37 | E134V | 0.638 | 0.419
38 | E134L | 1.1 | 1.21
39 | E134G | 1.21 | 0.684
40 | E134W | 1.07 | 1.32
41 | E134P | 1.22 | 1.01
42 | E134R | 1.23 | 1.26
43 | E134Y | 0.977 | 2.18
44 | E134C | 0.676 | 1.13
45 | E134F | 1.23 | 1.01
46 | E134T | 1.02 | 0.834
47 | E134Q | 0.525 | -0.44
48 | E134M | 0.946 | 0.587

Row | Variant | scaled log2 fold change [1] | scaled log2 fold change [2]
49 | E134H | 0.345 | 0.225
50 | E134N | 1.16 | 0.994
51 | E134I | 1.03 | 0.865
52 | E134K | 1.1 | 1.28
53 | E134S | 0.926 | 0.571
54 | E133Y | -0.281 | 0.898
55 | E133T | 0.0196 | 0.842
56 | E133R | 0.274 | 0.00388
57 | E133S | -1.5 | –
58 | E133W | -1.03 | 0.0959
59 | E133Q | -0.239 | -0.406
60 | E133V | 0.153 | -0.0517
61 | E133P | -0.087 | 0.243
62 | D136M | 0.136 | -0.421
63 | D136E | 0.196 | 0.183
64 | D136T | 0.611 | 0.431
65 | D136C | 0.0368 | 0.938
66 | D136V | 0.459 | 0.696
67 | D136I | 0.422 | -0.019
68 | D136F | 0.493 | -0.85
69 | D136P | 0.922 | 1.19
70 | D136Q | 0.344 | 0.87
71 | D136L | 0.751 | 0.113
72 | D136S | 0.133 | 0.338

Row | Variant | scaled log2 fold change [1] | scaled log2 fold change [2]
73 | D136K | 0.913 | 0.124
74 | D136W | 0.188 | 0.105
75 | D136R | 0.898 | 1.08
76 | D136A | 0.243 | -0.0274
77 | D136Y | 0.0478 | -0.0361
78 | D136G | 0.589 | 0.805
79 | D136N | 0.198 | -0.651
80 | D136H | 0.556 | 0.766
81 | N135L | 0.151 | 0.661
82 | N135K | -0.148 | -0.129
83 | N135V | 0.161 | 0.0375
84 | N135Q | 0.215 | -0.339
85 | N135M | -0.00864 | -0.104
86 | N135E | -0.00674 | 0.0823
87 | N135W | -0.118 | 0.554
88 | N135G | 0.0707 | -0.645
89 | N135S | 0.055 | -0.262
90 | N135C | 0.138 | –
91 | N135P | 0.887 | 0.821
92 | N135A | -0.0811 | -0.437
93 | N135D | 0.117 | 0.905
94 | N135R | -0.532 | 1.02
95 | N135T | -0.162 | -0.382
96 | N135F | 0.44 | -0.599

Row | Variant | scaled log2 fold change [1] | scaled log2 fold change [2]
97 | N135I | -0.261 | 0.197
98 | N135Y | 0.0894 | 0.75
99 | L138Y | 0.578 | -0.246
100 | L138H | 0.199 | 0.223
101 | L138N | 0.767 | 0.557
102 | L138K | 0.41 | -0.306
103 | L138P | 1.15 | 0.887
104 | L138T | -0.0362 | 0.287
105 | L138Q | -0.00504 | 0.34
106 | L138W | 0.885 | 0.749
107 | L138E | 0.986 | 0.639
108 | L138C | -0.108 | 0.251
109 | L138F | 0.0535 | -0.0648
110 | L138M | 0.188 | 0.00846
111 | L138A | 0.519 | -0.22
112 | L138D | 1.11 | 1.04
113 | L138S | 0.467 | 0.0871
114 | L138R | -0.0868 | -0.131
115 | L138V | -0.213 | -0.414
116 | L138I | 0.0896 | 0.0458
117 | L138G | 0.706 | 0.389
